This series concerns the molecule itself. The series can be described thus: SEC; tag-free purified protein on Superose 6 10/300 GL, 25 mM Tris-HCl pH 7.5, 150 mM NaCl; oligomer judged from the elution volume; data not shown. For orientation: In gel filtration, larger molecules generally elute earlier.

B1: Glutamine synthetase from Providencia vermicola (enzyme, UniProt A0AAX3RWL7 1-469, looked up)
chain: MSSEHVLSLIEEHKIKFIDLRFTDTKGKEQHITIPAHQVNEDFFEEGKMFDGSSIGGWKGINESDMVLMPDPSTAMLDPFFADPTLIIRCDILEPGTMQGYDRDPRSISQRAEDFLRSSGIADTVLFGPEPEFFIFDDIRFGNSMHSSYYHIDDIEAAWNTGTKYEGGNKGHRPGVKGGYFPVPPVDSSQDLRSAMCTTMEEMGLVVEAHHHEVATAGQNEVACRFNTMTKKADETQIYKYVVHNVAHAYGKTATFMPKPLVGDNGSGMHCHMSLSKDGINLFAGDKYGGLSEMALYYIGGIIKHARALNAFTNPTTNSYKRLVPGFEAPVMLAYSARNRSASIRIPVVASTKARRIEVRFPDPAANPYLAFAAQLMAGLDGIINKIHPGDAMDKNLYDLPPEEAKEIPTVAGSLEEALNELDKNREFLTRGGVFTNDAIDAYIELLRNDIQRVRMTPHPLEFEMYYSV
notes: Glutamine synthetase (GSI beta type, EC 6.3.1.2) of Providencia vermicola strain CGS6, cloned from genomic DNA; ORF of 1410 base pairs encoding 469 amino acids; Cloned between BamHI and XhoI of pGEX-6P-1; also called PveGS; GS; source: E. coli BL21 (DE3), pGEX-6p-1-PveGS, purified (GST Gene Fusion System, eluted from the GST tag by 3C protease); copies: 12
Consider B1, for which the “stoichiometry N” value stood at 12.

Broadly, the stoichiometry N is a count of units in the complex or per binding partner.

(Values after article PMC6199252, “Characterization and improved properties of Glutamine synthetase from Providencia vermicola by site-directed mutagenesis” (Scientific Reports, 2018).)
